Molecular target: HA-tagged N100A zDHHC17 (mouse) (UniProt Q80TN5)

protein levels of ankyrin-B-GFP (western blot) co-expressed with N100A zDHHC17 in HEK293T cells, against WT zDHHC17 or zDHHA17: 3 fold
Substance: Human ankyrin-B-GFP (220-kDa splice variant of ankyrin-B)
